In the supplement of paper PMC10126150:
± gives the standard deviation of the averaged measurements.

Test system: ATP
Assay: switch fluorescence ratio, 500 uM ATP over buffer (Cy3 cluster intensity, sum of 5 cycles each) (fold (ratio)); higher = stronger signal-on switching upon ATP binding; sequences stand for … in TCGTCGGCAGCGTCAGATGTGTATAAGAGACAGTTTTTTTTTTTTTTTTTTTTTTTTT…TC
Conditions: aptamer strand: ATP DNA aptamer (quencher-CACCTGGGGGAGTATTGCGGAGGAAGG + anchor), 100 nM annealed; ATP concentration: 500 uM
Method in brief: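 Between each of five buffer/ATP cycles, the flow-cell was stripped with NaOH and re-annealed. Each cycle imaged Cy3-labelled switching-strand clusters, annealed to 100 nM quencher-labelled ATP aptamer on a modified Illumina MiSeq flow-cell, first in selection buffer and then after 15 min with 500 uM ATP at 22 °C. The fluorescence ratio is summed target-cycle over summed buffer-cycle Cy3 intensity per cluster, averaged per switch-domain sequence, with clusters outside 100-1000 RFU excluded.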
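Note: ATP exposure 15 min at 22 °C before imaging.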

Going from TTCGGGAAGC to TTCGGGCGCG, the switch fluorescence ratio falls from 1.018 ± 0.0056 to 0.952 ± 0.021.

TTCGGGGGGG and TTCGGGGTCG are within error of each other in switch fluorescence ratio: 1.01 ± 0.043 for the first, 0.985 ± 0.072 for the second.

TTCGGGGTTT and TTCGGGTGCT are within error of each other in switch fluorescence ratio: 1.02 ± 0.06 for the first, 1.08 ± 0.052 for the second.

First: TTCGGTGGGG
Second: TTCGGTGTTT
The switch fluorescence ratio of the first is lower: 0.9805 ± 0.0094 for the first, 1.02 ± 0.022 for the second.

Going from TTCGGTTAGT to TTCGTACCGC, the switch fluorescence ratio rises from 1 ± 0.012 to 1.09 ± 0.029.

TTCGTACGAG and TTCGTATAGA are the same in switch fluorescence ratio: 1 ± 0.026 for the first, 1 ± 0.041 for the second.

TTCGTATATA and TTCGTATATC are within error of each other in switch fluorescence ratio: 1.01 ± 0.018 for the first, 1.7 ± 0.93 for the second.

TTCGTATCAG and TTCGTATCAT are within error of each other in switch fluorescence ratio: 1.02 ± 0.035 for the first, 1.049 ± 0.0097 for the second.

TTCGTGAACG and TTCGTGATTT are within error of each other in switch fluorescence ratio: 1 ± 0.071 for the first, 1.02 ± 0.04 for the second.

TTCGTGCAGG and TTCGTGTAAG are the same in switch fluorescence ratio: 1.02 ± 0.043 for the first, 1.02 ± 0.015 for the second.

TTCGTGTACA and TTCGTGTATC are within error of each other in switch fluorescence ratio: 1.03 ± 0.026 for the first, 0.999 ± 0.011 for the second.

TTCGTGTTGG and TTCGTTAGCA are within error of each other in switch fluorescence ratio: 0.973 ± 0.025 for the first, 1.54 ± 0.8 for the second.

TTCGTTATAG and TTCGTTGTGG are within error of each other in switch fluorescence ratio: 1.01 ± 0.044 for the first, 1.031 ± 0.0047 for the second.

TTCGTTTAGT and TTCGTTTATC are within error of each other in switch fluorescence ratio: 1.039 ± 0.0026 for the first, 1.07 ± 0.093 for the second.

TTCGTTTGAC and TTCTAACTCA are within error of each other in switch fluorescence ratio: 1.03 ± 0.1 for the first, 1.02 ± 0.029 for the second.

TTCTAAGGAG and TTCTAAGTA are the same in switch fluorescence ratio: 1.017 ± 0.0022 for the first, 1.021 ± 0.0044 for the second.

TTCTAATCGG and TTCTAATTTG are within error of each other in switch fluorescence ratio: 1.006 ± 0.01 for the first, 0.968 ± 0.058 for the second.

TTCTAATTTT and TTCTAGCGAA are within error of each other in switch fluorescence ratio: 0.995 ± 0.027 for the first, 1.17 ± 0.22 for the second.

TTCTAGCTTG and TTCTAGGAAT are within error of each other in switch fluorescence ratio: 1.01 ± 0.047 for the first, 1.02 ± 0.059 for the second.

TTCTAGTTAC and TTCTATTTAA are within error of each other in switch fluorescence ratio: 1.047 ± 0.0056 for the first, 1.02 ± 0.029 for the second.

TTCTCCGGTT and TTCTCGGTTT are within error of each other in switch fluorescence ratio: 1.31 ± 0.29 for the first, 1.02 ± 0.025 for the second.

First: TTCTCTAGAT
Second: TTCTCTATTT
The switch fluorescence ratio of the first is higher: 1.056 ± 0.0066 for the first, 0.983 ± 0.028 for the second.

First: TTCTGAAGC
Second: TTCTGAATAT
The switch fluorescence ratio of the first is higher: 3.69 ± 1 for the first, 1.01 ± 0.024 for the second.

TTCTGGCACG and TTCTGGGGGG are within error of each other in switch fluorescence ratio: 1.12 ± 0.18 for the first, 0.991 ± 0.027 for the second.

Compared with TTCTGGTCTA, TTCTGTGGAA is higher in switch fluorescence ratio: 0.986 ± 0.011 for the first, 1.04 ± 0.036 for the second.

TTCTGTTAAA and TTCTGTTATT are within error of each other in switch fluorescence ratio: 1.02 ± 0.027 for the first, 1.11 ± 0.21 for the second.

TTCTGTTGAC and TTCTGTTTTT are within error of each other in switch fluorescence ratio: 1.7 ± 0.95 for the first, 1.09 ± 0.15 for the second.

TTCTTAAAAA and TTCTTACTGG are within error of each other in switch fluorescence ratio: 0.993 ± 0.026 for the first, 0.995 ± 0.021 for the second.

TTCTTAGAAA and TTCTTCGGGC are within error of each other in switch fluorescence ratio: 0.991 ± 0.019 for the first, 1.08 ± 0.077 for the second.

TTCTTGACTT and TTCTTGATTT are within error of each other in switch fluorescence ratio: 1.02 ± 0.011 for the first, 1 ± 0.035 for the second.

TTCTTGCTGG and TTCTTGGGTA are within error of each other in switch fluorescence ratio: 0.997 ± 0.019 for the first, 0.989 ± 0.011 for the second.

TTCTTTATAT and TTCTTTATGG are within error of each other in switch fluorescence ratio: 0.9721 ± 0.005 for the first, 0.973 ± 0.028 for the second.

TTCTTTGATT and TTCTTTGGTT are within error of each other in switch fluorescence ratio: 1 ± 0.011 for the first, 0.9889 ± 0.0055 for the second.

Compared with TTCTTTGTTT, TTCTTTTACG is higher in switch fluorescence ratio: 1.01 ± 0.024 for the first, 1.049 ± 0.0082 for the second.

TTCTTTTATA and TTCTTTTTAT are within error of each other in switch fluorescence ratio: 0.99 ± 0.04 for the first, 0.982 ± 0.03 for the second.

TTCTTTTTCA and TTGAAAAAAT are the same in switch fluorescence ratio: 1.06 ± 0.067 for the first, 1.06 ± 0.13 for the second.

TTGAAACCGG and TTGAAATTAC are within error of each other in switch fluorescence ratio: 0.998 ± 0.017 for the first, 1.03 ± 0.065 for the second.

TTGAAGAGG and TTGAAGGCGT are within error of each other in switch fluorescence ratio: 1.02 ± 0.035 for the first, 1 ± 0.026 for the second.

TTGAAGTTAT and TTGAAGTTCG are within error of each other in switch fluorescence ratio: 0.9897 ± 0.0021 for the first, 0.986 ± 0.022 for the second.

First: TTGAAGTTTT
Second: TTGAATACCC
The switch fluorescence ratio of the first is lower: 0.991 ± 0.039 for the first, 1.052 ± 0.008 for the second.

TTGAATGCCA and TTGAATGCCG are within error of each other in switch fluorescence ratio: 0.99 ± 0.028 for the first, 1.04 ± 0.035 for the second.

Going from TTGAATGGGG to TTGAATGTTG, the switch fluorescence ratio falls from 1.05 ± 0.043 to 1.004 ± 0.0037.

TTGAATGTTT and TTGAATTTTA are within error of each other in switch fluorescence ratio: 0.992 ± 0.059 for the first, 0.999 ± 0.033 for the second.

TTGACAGGGC and TTGACATGC are within error of each other in switch fluorescence ratio: 0.952 ± 0.057 for the first, 1.01 ± 0.044 for the second.

TTGACCCAGG and TTGACCGCTG are within error of each other in switch fluorescence ratio: 1.23 ± 0.11 for the first, 1.16 ± 0.03 for the second.

TTGACCTTTG and TTGACGAGTA are within error of each other in switch fluorescence ratio: 1.01 ± 0.011 for the first, 1.1 ± 0.13 for the second.

TTGACGGGGG and TTGACGTGCC are within error of each other in switch fluorescence ratio: 1.01 ± 0.03 for the first, 1.021 ± 0.0033 for the second.

TTGACTGGG and TTGACTGGTG are within error of each other in switch fluorescence ratio: 0.991 ± 0.023 for the first, 1.02 ± 0.013 for the second.

TTGACTTGTG and TTGAGCATTT are within error of each other in switch fluorescence ratio: 0.971 ± 0.022 for the first, 0.982 ± 0.03 for the second.

TTGAGCCCCG and TTGAGCGAGG are within error of each other in switch fluorescence ratio: 0.951 ± 0.047 for the first, 0.961 ± 0.01 for the second.
